The labels stand for the following.
B5: Thermus thermophilus ClpB variant with truncated N-terminal domain, starting at residue 141 (Val) (domain or fragment)
chain: not shown
notes: ClpB, Thermus thermophilus, N-terminal domain truncated, starting at residue 141 (Val); numbering as in full-length TT ClpB; no cysteine replacement is printed; Theoretical MW of the hexamer 484.8 kDa (D1:p9); also called wt; dNClpB; source: E. coli, purified

Data set [1] deals with the molecule itself. The data set is described as follows: native gel or EMSA; native PAGE (6% acrylamide) of 1:100 labeled:unlabeled ClpB samples after the refolding and mixing procedure; stained with Coomassie Blue, panel a also imaged with a Typhoon scanner at 532 nm; run at 4°C, 30 V, 2 mM ATP, 4 mM Mg2+. Background: In EMSA bound probe runs differently from free probe, usually more slowly.

Data set [2] deals with the molecule itself. Nature of the data set: native gel or EMSA; native gel (6% acrylamide), stained with Coomassie Blue; run at 4°C, 30 V, 2 mM ATP, 4 mM Mg2+; NativeMark Unstained Protein Standard.
The target of data set [3] is B5. Nature of the data set: native gel or EMSA; native PAGE (6% acrylamide) of 1:100 labeled:unlabeled ClpB samples after the refolding and mixing procedure; stained with Coomassie Blue, panel a also imaged with a Typhoon scanner at 532 nm; run at 4°C, 30 V, 2 mM ATP, 4 mM Mg2+. The conditions noted are these: both partners purified.
In data set [4] the target is T1, PL1 BB: reassembled ClpB hexamer with one Alexa-labelled S236C-S359C E271A/E668A protomer among unlabelled … (Thermus thermophilus, UniProt Q9RA63 141-854; Q9RA63 141-854, S236C | S359C | E271A | E668A | E271A | E668A, Alexa Fluor 488 C5 maleimide and Alexa Fluor 594 C5 maleimide on the cysteines at 236 and 359).
T1 construct: ClpB, Thermus thermophilus, N-terminal domain truncated, starting at residue 141 (Val); numbering as in full-length TT ClpB; ClpB, Thermus thermophilus, N-terminal domain truncated, starting at residue 141 (Val), unlabelled cysteine-less; With the 1:100 ratio most hexamers hold no labelled protomer; only hexamers with one labelled protomer give the signal; also called PL1 double-Walker B …
Nature of the data set: other fluorescence titration; single-molecule FRET on freely diffusing reassembled ClpB hexamers (1:100 labeled:unlabeled, ~50 pM labeled, ~5 nM total ClpB), increasing concentrations of unlabeled κ-casein; ratio of the H2MM-derived population of state 1 with and without casein fitted to a simple binding isotherm; 25 mM HEPES, 25 mM KCl, 10 mM MgCl2, 2 mM ATP, 0.01% Tween 20, pH 8, 22°C. The conditions noted are these: both partners purified.

Data set [5] concerns the target T2, PL3 BB: reassembled ClpB hexamer with one Alexa-labelled S359C-Y646C E271A/E668A protomer among unlabelled … (Thermus thermophilus, UniProt Q9RA63 141-854; Q9RA63 141-854, S359C | Y646C | E271A | E668A | E271A | E668A, Alexa Fluor 488 C5 maleimide and Alexa Fluor 594 C5 maleimide on the cysteines at 359 and 646).
T2 construct: ClpB, Thermus thermophilus, N-terminal domain truncated, starting at residue 141 (Val); numbering as in full-length TT ClpB; ClpB, Thermus thermophilus, N-terminal domain truncated, starting at residue 141 (Val), unlabelled cysteine-less; With the 1:100 ratio most hexamers hold no labelled protomer; only hexamers with one labelled protomer give the signal; also called PL3 double-Walker B …
The description is as above. The settings on record: both partners purified.

B1: ClpB (N-terminally truncated, from residue 141) K204T (domain or fragment, Thermus thermophilus, UniProt Q9RA63 141-854, looked up)
chain: VQTEHAESTYNALEQYGIDLTRLAAEGKLDPVIGRDEEIRRVIQILLRRTKNNPVLIGEPGVGTTAIVEGLAQRIVKGDVPEGLKGKRIVSLQMGSLLAGAKYRGEFEERLKAVIQEVVQSQGEVILFIDELHTVVGAGKAEGAVDAGNMLKPALARGELRLIGATTLDEYREIEKDPALERRFQPVYVDEPTVEETISILRGLKEKYEVHHGVRISDSAIIAAATLSHRYITERRLPDKAIDLIDEAAARLRMALESAPEEIDALERKKLQLEIEREALKKEKDPDSQERLKAIEAEIAKLTEEIAKLRAEWEREREILRKLREAQHRLDEVRREIELAERQYDLNRAAELRYGELPKLEAEVEALSEKLRGARFVRLEVTEEDIAEIVSRWTGIPVSKLLEGEREKLLRLEEELHKRVVGQDEAIRAVADAIRRARAGLKDPNRPIGSFLFLGPTGVGKTELAKTLAATLFDTEEAMIRIDMTEYMEKHAVSRLIGAPPGYVGYEEGGQLTEAVRRRPYSVILFDEIEKAHPDVFNILLQILDDGRLTDSHGRTVDFRNTVIILTSNLGSPLILEGLQKGWPYERIRDEVFKVLQQHFRPEFLNRLDEIVVFRPLTKEQIRQIVEIQLSYLRARLAEKRISLELTEAAKDFLAERGYDPVFGARPLRRVIQRELETPLAQKILAGEVKEGDRVQVDVGPAGLVFAVPARVEA
notes: ClpB, Thermus thermophilus, N-terminal domain truncated, starting at residue 141 (Val); numbering as in full-length TT ClpB; also called A1; Walker A1; source: E. coli, purified
For B1, the binding result in data set [1] is listed as “binds”.

B2: ClpB (N-terminally truncated, from residue 141) E271A (domain or fragment, Thermus thermophilus, UniProt Q9RA63 141-854, looked up)
chain: VQTEHAESTYNALEQYGIDLTRLAAEGKLDPVIGRDEEIRRVIQILLRRTKNNPVLIGEPGVGKTAIVEGLAQRIVKGDVPEGLKGKRIVSLQMGSLLAGAKYRGEFEERLKAVIQEVVQSQGEVILFIDALHTVVGAGKAEGAVDAGNMLKPALARGELRLIGATTLDEYREIEKDPALERRFQPVYVDEPTVEETISILRGLKEKYEVHHGVRISDSAIIAAATLSHRYITERRLPDKAIDLIDEAAARLRMALESAPEEIDALERKKLQLEIEREALKKEKDPDSQERLKAIEAEIAKLTEEIAKLRAEWEREREILRKLREAQHRLDEVRREIELAERQYDLNRAAELRYGELPKLEAEVEALSEKLRGARFVRLEVTEEDIAEIVSRWTGIPVSKLLEGEREKLLRLEEELHKRVVGQDEAIRAVADAIRRARAGLKDPNRPIGSFLFLGPTGVGKTELAKTLAATLFDTEEAMIRIDMTEYMEKHAVSRLIGAPPGYVGYEEGGQLTEAVRRRPYSVILFDEIEKAHPDVFNILLQILDDGRLTDSHGRTVDFRNTVIILTSNLGSPLILEGLQKGWPYERIRDEVFKVLQQHFRPEFLNRLDEIVVFRPLTKEQIRQIVEIQLSYLRARLAEKRISLELTEAAKDFLAERGYDPVFGARPLRRVIQRELETPLAQKILAGEVKEGDRVQVDVGPAGLVFAVPARVEA
notes: ClpB, Thermus thermophilus, N-terminal domain truncated, starting at residue 141 (Val); numbering as in full-length TT ClpB; also called B1; Walker B1; source: E. coli, purified
Turning to B2, the binding result in data set [1] is “binds”.

B3: ClpB (N-terminally truncated, from residue 141) double Walker B mutant E271A/E668A (domain or fragment, Thermus thermophilus, UniProt Q9RA63 141-854, looked up)
chain: VQTEHAESTYNALEQYGIDLTRLAAEGKLDPVIGRDEEIRRVIQILLRRTKNNPVLIGEPGVGKTAIVEGLAQRIVKGDVPEGLKGKRIVSLQMGSLLAGAKYRGEFEERLKAVIQEVVQSQGEVILFIDALHTVVGAGKAEGAVDAGNMLKPALARGELRLIGATTLDEYREIEKDPALERRFQPVYVDEPTVEETISILRGLKEKYEVHHGVRISDSAIIAAATLSHRYITERRLPDKAIDLIDEAAARLRMALESAPEEIDALERKKLQLEIEREALKKEKDPDSQERLKAIEAEIAKLTEEIAKLRAEWEREREILRKLREAQHRLDEVRREIELAERQYDLNRAAELRYGELPKLEAEVEALSEKLRGARFVRLEVTEEDIAEIVSRWTGIPVSKLLEGEREKLLRLEEELHKRVVGQDEAIRAVADAIRRARAGLKDPNRPIGSFLFLGPTGVGKTELAKTLAATLFDTEEAMIRIDMTEYMEKHAVSRLIGAPPGYVGYEEGGQLTEAVRRRPYSVILFDAIEKAHPDVFNILLQILDDGRLTDSHGRTVDFRNTVIILTSNLGSPLILEGLQKGWPYERIRDEVFKVLQQHFRPEFLNRLDEIVVFRPLTKEQIRQIVEIQLSYLRARLAEKRISLELTEAAKDFLAERGYDPVFGARPLRRVIQRELETPLAQKILAGEVKEGDRVQVDVGPAGLVFAVPARVEA
notes: ClpB, Thermus thermophilus, N-terminal domain truncated, starting at residue 141 (Val); numbering as in full-length TT ClpB; also called BB; source: E. coli, purified
Turning to B3, in data set [2], the stoichiometry N (in general, the number of molecules, sites or subunits per partner or assembly) turned out to be 6.

B4: ClpB (N-terminally truncated, from residue 141) E668A (domain or fragment)
chain: not shown
notes: ClpB, Thermus thermophilus, N-terminal domain truncated, starting at residue 141 (Val); numbering as in full-length TT ClpB; also called B2; Walker B2; source: E. coli, purified
For the molecule B4, in data set [1], the binding result is recorded as “binds”.
As for B5, the “stoichiometry N” value in data set [2] came out at 6.

B6: ClpB (N-terminally truncated, from residue 141) S359C-Y646C, labelled with Alexa Fluor 488 and Alexa Fluor 594 (domain or fragment)
chain: not shown
modifications: Alexa Fluor 488 C5 maleimide and Alexa Fluor 594 C5 maleimide on the cysteines at 359 and 646
notes: ClpB, Thermus thermophilus, N-terminal domain truncated, starting at residue 141 (Val); numbering as in full-length TT ClpB; The labelled protomer alone, as mixed 1:100 with unlabelled ClpB (Dm4); also called PL3; PL3 construct S359C-Y646C; source: E. coli, purified, labelled
Turning to B6, the binding result in data set [3] is listed as “binds”.

B7: ClpB (N-terminally truncated, from residue 141) K347A (domain or fragment)
chain: not shown
notes: ClpB, Thermus thermophilus, N-terminal domain truncated, starting at residue 141 (Val); numbering as in full-length TT ClpB; also called hyper; hyperactive mutant; source: E. coli, purified
As to B7, the binding result in data set [1] is on record as “binds”.

B8: κ-casein (natural protein)
chain: not shown
notes: κ-casein (Sigma Aldrich), unlabelled soluble model substrate protein; also called model substrate protein; source: bought: Sigma Aldrich
Regarding B8, the results for the dissociation constant (Kd) in data set [4] and in data set [5] were 2000 nM and 1600 nM, respectively.

(Values after PMC10870172, “Single-molecule FRET probes allosteric effects on protein-translocating pore loops of a AAA+ machine” (Biophysical Journal, 2024).)
